In paper PMC11066147 (Heliyon, 2024):
Entries after “also recorded” stand apart in the source; their conditions may differ.

Assays:
PfHsp70-z = molecular target: T1, PfHsp70-z (Plasmodium falciparum, UniProt Q8IC01); assay: SPR self-association, immobilised ligand PfHsp70-z; type: binding
T1 sequence (Q8IC01 1-873): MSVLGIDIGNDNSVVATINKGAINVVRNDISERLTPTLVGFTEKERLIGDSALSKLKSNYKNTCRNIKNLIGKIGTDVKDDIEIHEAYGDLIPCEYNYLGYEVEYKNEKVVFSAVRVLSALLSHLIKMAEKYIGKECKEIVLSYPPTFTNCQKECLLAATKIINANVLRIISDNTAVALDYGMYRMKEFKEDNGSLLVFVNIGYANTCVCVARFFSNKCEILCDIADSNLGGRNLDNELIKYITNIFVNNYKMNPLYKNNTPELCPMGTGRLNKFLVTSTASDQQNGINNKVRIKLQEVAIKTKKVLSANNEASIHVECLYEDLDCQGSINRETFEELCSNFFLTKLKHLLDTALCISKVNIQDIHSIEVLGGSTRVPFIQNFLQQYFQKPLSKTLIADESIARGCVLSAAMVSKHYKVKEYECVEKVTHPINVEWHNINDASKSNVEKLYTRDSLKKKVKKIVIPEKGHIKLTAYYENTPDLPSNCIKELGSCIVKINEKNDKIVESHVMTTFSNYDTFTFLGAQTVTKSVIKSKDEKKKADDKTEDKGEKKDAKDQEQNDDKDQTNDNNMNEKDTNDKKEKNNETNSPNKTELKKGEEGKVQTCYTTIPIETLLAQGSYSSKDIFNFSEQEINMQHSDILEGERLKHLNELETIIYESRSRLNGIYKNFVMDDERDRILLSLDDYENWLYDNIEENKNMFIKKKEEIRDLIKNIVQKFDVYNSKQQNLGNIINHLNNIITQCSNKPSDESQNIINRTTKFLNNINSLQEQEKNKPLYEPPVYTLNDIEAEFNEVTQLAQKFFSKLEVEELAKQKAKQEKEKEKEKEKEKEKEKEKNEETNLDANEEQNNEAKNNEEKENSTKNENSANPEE

PfHsp70-1 [1] = molecular target: T2, PfHsp70-1 (Plasmodium falciparum, UniProt Q8IB24); assay: SPR heterologous association with PfHsp70-1; type: binding
PfHsp70-1 [2] = molecular target: T2, PfHsp70-1; details: previous study; ref [3]; cited from earlier work

T2 sequence (Q8IB24 1-677): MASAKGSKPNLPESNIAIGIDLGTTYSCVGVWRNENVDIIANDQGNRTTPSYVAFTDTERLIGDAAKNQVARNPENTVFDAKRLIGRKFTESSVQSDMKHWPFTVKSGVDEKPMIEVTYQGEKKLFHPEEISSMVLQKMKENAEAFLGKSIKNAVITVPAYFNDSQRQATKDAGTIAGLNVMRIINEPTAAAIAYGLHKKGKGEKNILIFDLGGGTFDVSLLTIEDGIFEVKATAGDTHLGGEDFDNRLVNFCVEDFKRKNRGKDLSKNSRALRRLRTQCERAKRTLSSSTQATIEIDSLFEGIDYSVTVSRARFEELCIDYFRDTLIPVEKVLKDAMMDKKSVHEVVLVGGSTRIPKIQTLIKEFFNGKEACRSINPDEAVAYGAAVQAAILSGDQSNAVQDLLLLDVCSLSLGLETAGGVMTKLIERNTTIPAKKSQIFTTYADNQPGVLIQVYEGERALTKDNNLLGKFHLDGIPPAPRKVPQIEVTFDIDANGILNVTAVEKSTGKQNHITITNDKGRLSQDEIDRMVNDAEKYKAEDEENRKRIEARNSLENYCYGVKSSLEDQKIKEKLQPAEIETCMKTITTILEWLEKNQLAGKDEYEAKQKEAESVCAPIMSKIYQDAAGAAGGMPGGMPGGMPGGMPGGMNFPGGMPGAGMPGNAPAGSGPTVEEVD

B1: PfHsp70-z: essential cytosol localised Hsp110 chaperone of Plasmodium falciparum, recombinant (protein)
chain: MSVLGIDIGNDNSVVATINKGAINVVRNDISERLTPTLVGFTEKERLIGDSALSKLKSNYKNTCRNIKNLIGKIGTDVKDDIEIHEAYGDLIPCEYNYLGYEVEYKNEKVVFSAVRVLSALLSHLIKMAEKYIGKECKEIVLSYPPTFTNCQKECLLAATKIINANVLRIISDNTAVALDYGMYRMKEFKEDNGSLLVFVNIGYANTCVCVARFFSNKCEILCDIADSNLGGRNLDNELIKYITNIFVNNYKMNPLYKNNTPELCPMGTGRLNKFLVTSTASDQQNGINNKVRIKLQEVAIKTKKVLSANNEASIHVECLYEDLDCQGSINRETFEELCSNFFLTKLKHLLDTALCISKVNIQDIHSIEVLGGSTRVPFIQNFLQQYFQKPLSKTLIADESIARGCVLSAAMVSKHYKVKEYECVEKVTHPINVEWHNINDASKSNVEKLYTRDSLKKKVKKIVIPEKGHIKLTAYYENTPDLPSNCIKELGSCIVKINEKNDKIVESHVMTTFSNYDTFTFLGAQTVTKSVIKSKDEKKKADDKTEDKGEKKDAKDQEQNDDKDQTNDNNMNEKDTNDKKEKNNETNSPNKTELKKGEEGKVQTCYTTIPIETLLAQGSYSSKDIFNFSEQEINMQHSDILEGERLKHLNELETIIYESRSRLNGIYKNFVMDDERDRILLSLDDYENWLYDNIEENKNMFIKKKEEIRDLIKNIVQKFDVYNSKQQNLGNIINHLNNIITQCSNKPSDESQNIINRTTKFLNNINSLQEQEKNKPLYEPPVYTLNDIEAEFNEVTQLAQKFFSKLEVEELAKQKAKQEKEKEKEKEKEKEKEKEKNEETNLDANEEQNNEAKNNEEKENSTKNENSANPEE
nucleotide regulation of self-association (PfHsp70-z; NN vs ADP/ATP): its self-association was nucleotide independent; also recorded: its oligomerisation was not regulated by nucleotide | KD self-association (PfHsp70-z; apo state): 1.39 nM | affinity in apo- vs ADP-state (PfHsp70-1 [1]; apo- and ADP-states): occurred within the same order of affinity | effect of nucleotide on heterologous association (PfHsp70-1 [1]; relative to apo-state): ATP enhanced the direct association of the two chaperones | effect of ATP on association (PfHsp70-1 [2]): ATP substantially enhances their association
